{"source": "the DeepSol protein solubility set", "data": [{"experiment": "soluble on expression in E. coli; label from the status in PepcDB or PDB records", "values": [{"sequence": "MSLHWSFPEMIRLFSDEYRSSMLSEGNFGVERESQRVNYSGDLALTPHPSVFGDKFENPRITTDFSESQIEMITPPLKSAEEVYKALNDINNEVKNALKGELLWPLSMPPRLPKEEDIPVAQFPDTEDGRQKQIYRNGLALRYGKKMQMISGIHYNFSFSDKMIDFIYRQLRIEKTKRQFIDEMYFSLTRNFLRYHWILIYLFGASPICDSTYNSVIFKELEKIEKCCPHCAGKIKNFNRYATSLRVSRFGYSDTDEKKYTVYFNSLREYETKIKKMMETESNKYSKLGIYKDGVQIQLNGNLLQSESEFYAPIRFKRNIKKGETQLTALVNRGVEYIEIRILDVNPFDKVGISVEQMNFLQVFNVFCLFEESKSIDEEQMERINTNHQLAALLGRNEDLMLYKYNDDSRIPLKNFGDEIFEKLRIVAKLMDKDNVEKKYSESVESEYKKLHNIELLPSERICREMDNDNRSYIQFGMEYAEAEGHHHHHH", "soluble on expression in E. coli": "not soluble"}, {"sequence": "MSLIAKVVVDVAAKQTDRIFEYHIPVELEKDIKVGSRVVVPFGPRKIQGFVVGLSEDSEFKGQLKDLLVVVDEMPPLTPELVTLSADLAENIYSYRIKILQAMLPWVMRANYRKLLVPANAQAEKMQFFQGDPIDLNKITDLKDIKKIRKLLRDGDAKIEYVVENKAKKKKENQYELVLESEEYTKIYNTLRQNAVKQKQLLMDIIENEASYPKNQKDFEKKLGLTASVLNTAVKRGWLKRKEVEVYRDPLSGFKDNKKSAPVKLNDEQQFALNQITAAIDKRKAETFLLEGITGSGKTEVYLHAISKALEQGRNALMLVPEISLTPQMVRQVKSRFGQAVAVLHSALSEGEKYDEWRRIRRGETRVVVGARSAVFAPLDNIGLIVIDEEHESSYKQETDPRYNARDVAIWRSKYHHCPLVLGSATPSLGSRARAQKNVYKLLRLTKRANNKKLPKVNLIDLKHVQFAGGQFDLSVNLVDAIKKRLDNKEQVILMLNRRGFANFMLCRECGFVLKCPNCDVSLNLHKDTNSMQCHYCGHTERVPSRCPNCQSSKIRFLGTGTQKVQEELEELLPGARILRMDVDTTRKKGSYKRILDSFGNHEADILLGTQMIAKGLDFPNVTLVGVINADTGLWLSDYNASEKTFELLTQVAGRAGRANKEGEVLIQTYNPEHYAIQLAQTQNYERFYGYEMNVRHAGNYPPYFFTVLISIAAKKEQNAAREAFRIKRYLSQHLHEEMIILGPTPSAISRVKNQYYYQILVKYKKEPNIKELLHHIQDSAQEAKKYGLNVFIDNEPEKIMEGHHHHHH", "soluble on expression in E. coli": "soluble"}, {"sequence": "MSLIAPLLVIEDEPAVMSFVRRALERGGYTVVGANSGMQALELLKGQQFQGIISDMRTPGNVDGGGVYHWIREHRPELANRIVFITGDIVNEETVAVLKETGAPCVEKPFRVQDLIATVENTIGKPQQETEGHHHHHH", "soluble on expression in E. coli": "soluble"}, {"sequence": "MSLIDPKRARLPIIRQCTLLRLNRSGVYYRSVPQSEANLELMRLIDAQFLETPYYGSRQMTWHLRRLGHEVGRKRVRRLMAIMGLRAIYQKPRTSVPHPEHRKYPYLLRDLVIDRPNQVWCSDITYIPMKRGFLYLVAIMDWFTRKVLSWRLSNTMDAEFCIEALRDALMRYGPPEIFNTDQGSQFTTPRFTGILEERQIRISMDGRGRWLDNVFIERLWRSLKYECVYLHAFETESELRVGLTKWITHYNGQRPHTALAGRTPDEAYHGVPTPSGPGLTPDQMANSNAVRMAAEGHHHHHH", "soluble on expression in E. coli": "soluble"}, {"sequence": "MSLIHAGSMIDGVAKKIKTKQTIVIEDGVIIDVKSGYTKAKPNDIVIDLKNTTVTPGWMDLHVHLGSQSSPQSYSEDFYLNPEDFAYRSVPWIEKTLLAGFTTVRDVGGEVVLAARNAVNNGYINGPRIFSAGRSIGTTGGHADPSSGLNRKFRGDPGPHDAVVNGVDDAMKAVRQRYKDGSDLIKITATGGVLSVAKNGQNPQFTEEEIRAIVETAKDYEMHVAAHAHGVEGMQRAIRAGVRTIEHGTLMDRPTARLMKKYGTYYVPTVSAGEFVYEKAKEPGYFPEIVRPKALEIGPKIKKTLGMAYEEGVKIAFGTDMGVSPHGENADEFVYMVEAGMKPIDAIFAATSIAAEVLNQEDLGKIKKGMKADIVAVNGNPLKDIAVTKNVVFVMKDGVVYKQPINLKEGHHHHHH", "soluble on expression in E. coli": "soluble"}, {"sequence": "MSLIHIAIAEDDFRVAQIHERLIKQLDGFKIIGKAANAKETLALLKEHKADLLLLDIYMPDELGTALIPDIRSRFPEVDIMIITAATETRHLQEALRAGIAHYLIKPVTADKFRQVLLQYKEKRKLLMSQPKGIITITTDPNSSSVDKLAAALEHHHHHH", "soluble on expression in E. coli": "soluble"}, {"sequence": "MSLIKQEHMHPPPRAITPLPPATHQITLEEYKEREKKDYYRDATKDASVKKVVLSLLKDHPGMWQNGNRFQPEKWRALGVDVYQRTGQIVRVNDMRKMLVMGKSVLKKKIAICIRDKKLDRAATEKDLWYWEYYRHFLYYRETLGQFEANLRGEEWTGEDQIQDEDDIIYDGMLDGDLSNSSHNFAGHGADDDYQVEEVQYSEAGFRRPESVRGGDSYFGHGPPPQMVMGSSASNFSSATQSHSRNRKSSSIDHTEVDRSAQHIAEQAKRLFLQYPEKSNLIRETMFKTILAFDDPSADYQNVGEIFDDLAAQEAAKKRKRAENRAQREQQ", "soluble on expression in E. coli": "not soluble"}, {"sequence": "MSLILLNTITDQVSVSETQTKSPRLWMPERVLFTPAALGEDWGQQILARVQSLNLPIEELSQNRLKGLRGESERDTYNIAKRTLAVVTAPPSSFKLSPIPPSADWQFHIAEGCPAHCQYCYLAGSLSGPPVIRVFANLPQILENLANYEQQGKTTTFEVSCYTDPLGIEHLTGSLAECIRYFGTRTNAHLRWVSKFDAVDGLLDLPHNGNTRCRMSVNAAPISGKFEGGTASVASRLNALRRLALPQERGGGGYPVGLVIAPIMPIDDWQMHYSRLFDQINEALDFDCNFTFELISHRFTPGSKEVLQAWYPQSKLEMDEAKRSVKRNKFGGTKYVYEKDTMKALRSFFESEISRRFPNAETLYWTEGHHHHHH", "soluble on expression in E. coli": "soluble"}, {"sequence": "MSLIRAMQKSDYEAVYKLWCEIKGFGIRSIDDSKENIENFLDRNPNLSVVAVIDEEIVGSILCGHDGRTGGFYHVCVHKDHRKKGIAHEMAKFCLEALKAQKINKIALIAFKNNDLGNEFWKHYGFTLREDANYYDLSLNEYNQTSFNAEGHHHHHH", "soluble on expression in E. coli": "soluble"}, {"sequence": "MSLITDLFKRRIHQMEEKKKKNIGFNIIKSDPTDGHGGFGGGSLSLDNVSPVFVDVEAGDAHVDIGAMHARSTVEKGIKFLTNQEDVPNGKPYWLVWVTIDRKQEGPYYAGVTACFMTVDREIRRGYKLLPEHVNRLDKSIKRHIIVDHMDDKSKGILADFLKNHDMGMWERAEDQLKKDLASSEGHHHHHH", "soluble on expression in E. coli": "soluble"}, {"sequence": "MSLITQRSSMIGVVTAGFENPLRARLLSDLMAVLGQRAFTPLVTNADDPQQLRQALERLLSYRVAGLVMTSASPPLSVARQYLAHRIPVVMINREANLAGADVVVSDNAAGAAEAAQRLVHAGARRLAFVGPHTASFSARSRADAFAHALQRGNMSGATLASVIDTASDTHACGLDAAQQLFAAGHRPDGVFCSSDLLALGVIDAARAAFGLRVPDDVRVIGFDDIPAAAYHAYRLTTLRQDTQGLAHAAVDLLADRISAFDGASRTRVVPVTHVVRHSCAEGHHHHHH", "soluble on expression in E. coli": "soluble"}, {"sequence": "MSLIYPEITGKSGEHLRLKTLESVWIQGKLRMWGRWSYIGDGKTGNMFNQLLTSKKLTKTAINEALRRMKKAGLDKPELEAFLRDMINGNQKSWLAHCTDSEALIIDRVIGEVLAGYPGLLNVLSQRYVGRGMTKRKMAELLNDAHPEWSLRTCERRIEHWLKVAEFILYKPMVMAFGIEKKVIAFEGHHHHHH", "soluble on expression in E. coli": "soluble"}, {"sequence": "MSLIYTLTLNPSVDYKIVLKEFQEESLNYALNNNFFAGGKGINVSTVLKNLGKPSTALGFLGGFTGDYIRFSLDSRGIKNDFIKIKYDTRLNIKMIANGRETEINANSPDISENEFELLKNKLKNLANNSTLVMSGSVPAALGEDAYNEIANSISNDVKLIIDTSGKPLRKILRLNPFLIKPNIYELEDLFNAKFDSTKELIKIGKNLVESGVQNIIISMGSDGAIFIGGKNVAFRAFVPKINFVSTIGAGDSVIAGFVYAFDNGSTLEDSFKFGVAAGTATALKGNLCEFQDVKKMLCQIRVEDIYTSEGHHHHHH", "soluble on expression in E. coli": "soluble"}, {"sequence": "MSLKAIVYKGPKMLEVVEIDKPIPKEGQVLVKVNRAGICGGDLGIYKGTHPRAKAPLVFGHEFSGVVEEDGKIFKKGTKVTVNPIYSCGDCVPCNSGDQHVCNTLRLVGIDRDGAMSEYVVVDENKLYELGDEMSDELGALIEPIAVAVHSVREPGYKPGDNAVVFGGGPIGLAIAFVLKKFGCTNLTIIEADDKRIAMGKDFGFDLRDAKGLDLEALKAEKTGGNGFDFVFDCAGVEPVAAQLIKASKVRGKIVIVAGYKTPTMFPVNEGMFKEVAFEFVRVYRDKDYEIAVELAKDEPMFEKLVTHVLPVEQAQEGFDLLLTPGTGAMKVLFKEGHHHHHH", "soluble on expression in E. coli": "not soluble"}, {"sequence": "MSLKCIAIDLDGTLLNKESVISAENREAIKRAVDAGILVTICTGRATFDVKALLDDLDIPIIAANGGTIHDTGYRLISRTLMDQEAGKAIADYLLSKNIYFEVYTDDHLLSPFDGEAKLHAELDILKSANPNEQTDDLWQGAMTQFKQFGIKPIPHIESVFDGGENIYKLLCFSFDMDKLKQAKEELKHHKKLAQTSSGKHIIEILPASSGKGRALTKLADIYGIETQDIYAIGDSPNDLSMFEVAGHRIAMENAIDELKEKSTFVTKSNDENGVAYFIDQLLSGQYAEGHHHHHH", "soluble on expression in E. coli": "soluble"}, {"sequence": "MSLKDQDIFELIEPSTDINDIIMPENTKELLENILKQQDKKVLERLHSWGIKSNKNIEAKIIFYGPAGTGKTMSALAMAKSMKKSVLSFDCSKILSKWVGESEQNVRKIFDTYKNIVQTCKQSPILLLNEADQFLSTRVDGSSGSDKMHNQMQNIFLEQIERFSGVIIATTNFLESLDSAFSRRFDYKIEFKKPDFKDRLKIWEKFLPKKALFEKDFDINILSNYELSGAQILMVVKNTALKVAVSKDGVFKIQDFIESIQKELNSSFDKSKIVGFEGHHHHHH", "soluble on expression in E. coli": "soluble"}, {"sequence": "MSLKDRYILAFETSCDETSVAVLKNDDELLSNVIASQIESHKRFGGVVPEVASRHHVEVITACIEEALAEAGITEEDVTAVAVTYGPGLVGALLVGLSAAKAFAWAHGLPLIPVNHMAGHLMAAQSVEPLEFPLLALLVSGGHTELVYVSEAGDYKIVGETRDDAVGEAYDKVGRVMGLTYPAGREIDELAHQGQDIYDFPRAMIKEDNLEFSFSGLKSAFINLHHNAEQKGESLSTEDLCASFQAAVMDILMAKTKKALEKYPVKTLVVAGGVAANKGLRERLATEITDVNVIIPPLRLCGDNAGMIAYASVSEWNKENFANLDLNAKPSLAFDTMEEGHHHHHH", "soluble on expression in E. coli": "soluble"}, {"sequence": "MSLKDTFSVLLIEDSNADYRLIQEYLGESQSPSFQISRSTDFSAGLSFITNESPDLVMLDLSLPDRTGLEALSEIKRKFPQIPVIICSGAEDKDITVNALQIGAQDYVYKGKFDSYSLSRSLVFAYERNRLALELEKKSVFEQESEERYRLFFQYNPHPAFLFEHDSLEILEINRAVLEKYGYEEKDLIGKSILQIFELSDFDKVKQEIIFFQFGANQASSFVHKKKNGEKLIADTTVYKFRYQNQILDLAVVTDITEMVRNRESILATLAEKDALIQEIHHRVKNNMQIMISLLNLQADNAMSRNLTAKELYNLLKDTESRVFSMSLVHNELYKSNDLSHVDFHSYLNMLLENLWNLYGVGLKIKHLVEAQGLVLSMNIAISLGLIVCELVTNAIKHAFPDGYEGLLKIFARCELGSTIVTIEDNGKGIPKEMISKNHETLGLQLVNILTKQIQGKLHLEVLDPGTKFEIRFPEQKGTVQRKEGHHHHHH", "soluble on expression in E. coli": "not soluble"}]}]}
